B1: GLI1_(1-232), wild type, 35S-radiolabeled [modified: [35S]-methionine label; [35S]-methionine label] [human] / GST-SUFU (fusion of GST to full-length human SUFU) [human] (parent complex)
chain 1: MFNSMTPPPISSYGEPCCLRPLPSQGAPSVGTEGLSGPPFCHQANLMSGPHSYGPARETNSCTEGPLFSSPRSAVKLTKKRALSISPLSDASLDLQTVIRTSPSSLVAFINSRCTSPGGSYGHLSIGTMSPSLGFPAQMNHQKGPSPSFGVQPCGPHDSARGGMIPHPQSRGPFPTCQLKSELDMLVGKCREEPLEGDMSSPNSTGIQDPLLGMLDGREDLEREEKREPESV
chain 2: MAELRPSGAPGPTAPPAPGPTAPPAFASLFPPGLHAIYGECRRLYPDQPNPLQVTAIVKYWLGGPDPLDYVSMYRNVGSPSANIPEHWHYISFGLSDLYGDNRVHEFTGTDGPSGFGFELTFRLKRETGESAPPTWPAELMQGLARYVFQSENTFCSGDHVSWHSPLDNSESRIQHMLLTEDPQMQPVQTPFGVVTFLQIVGVCTEELHSAQQWNGQGILELLRTVPIAGGPWLITDMRRGETIFEIDPHLQERVDKGIETDGSNLSGVSAKCAWDDLSRPPEDDEDSRSICIGTQPRRLSGKDTEQIRETLRRGLEINSKPVLPPINPQRQNGLAHDRAPSRKDSLESDSSTAIIPHELIRTRQLESVHLKFNQESGALIPLCLRGRLLHGRHFTYKSITGDMAITFVSTGVEGAFATEEHPYAAHGPWLQILLTEEFVEKMLEDLEDLTSPEEFKLPKEYSWPEKKLKVSILPDVVFDSPLH

Variants of: B1
Experiment: GST-SUFU pull-down binding assay with 35S-radiolabeled in vitro-translated GLI1; parent: 8 nM

Variant	Kd
chain 1 MFNSMTPPPISSYGEPCCLRPLPSQGAPSVGTEGLSGPPFCHQANLMSGPHSYGPARETNSCTEGPLFSSPRSAVKLTKKRALSISPLSDASLDLQTVIRTEPSSLVAFINSRCTSPGGSYGHLSIGTMSPSLGFPAQMNHQKGPSPSFGVQPCGPHDSARGGMIPHPQSRGPFPTCQLKSELDMLVGKCREEPLEGDMSSPNSTGIQDPLLGMLDGREDLEREEKREPESV [chain 1 S102E]	67 nM
chain 1 MFNSMTPPPISSYGEPCCLRPLPSQGAPSVGTEGLSGPPFCHQANLMSGPHSYGPARETNSCTEGPLFSSPRSAVKLTKKRALSISPLSDASLDLQTVIRTSPSSLVAFINSRCTSPGGSYGHLSIGTMEPSLGFPAQMNHQKGPSPSFGVQPCGPHDSARGGMIPHPQSRGPFPTCQLKSELDMLVGKCREEPLEGDMSSPNSTGIQDPLLGMLDGREDLEREEKREPESV [chain 1 S130E]	21 nM

From article PMC9279676, “ERK2 MAP kinase regulates SUFU binding by multisite phosphorylation of GLI1” (Life Science Alliance, 2022)
